Measurements reported in a protein production outcome set (Wang et al. 2014).

Assay: label from the status in PepcDB records

## MTRIAIALAQDFADWEPALLAAAARSYLGVEIVHATPDGMPVTSMGGLKVTPDTSYDALDPVDIDALVIPGGLSWEKGTAADLGGLVKRFRDRDRLVAGICAAASALGGTGVLNDVAHTGNALASHKAYPAYRGEAHYRDQPRAVSDGGVVTAAGSAPVSFAVEILKSLGLFGPEAEAELQIFAAEHR
  protein production: not failed

## MTRIAIVGAGPAGLSLAYFLKGSRKVEATVYESMPEPGLKPCAWGLITGIENIIPIPNETIISEIRGFRIYLDNKLVFDIRTDNKLGYIIDKPLFLKRLSQEVNVEFNSKVVKKDDKYYINDKSLDHDKVIFATGHYSVSKSMSIPAIQYITDYEIDKEVVEFYFYSGFLGYAWVFPDREGSKIGIGGYAEVPELKERLKQILKGRIRTFHGARVTDYGVIEDRLDGNYTGEALGTVYAITGEGIRPSIISSKILADSILNRKDFKKEFKKSKLYWSLNWHAKIIKMTKENDPGTARLSKALLNNDPQLILKFAIGEFNRVDLIKIFGRSLILEHHHHHH
  protein production: not failed

## MTRLNELWELYFQTLDKSTSWTFTKESFYNRYLKEPLGKKKLDSIQEHHIMAIIRHLQAEGMATRTVNTTLEILRPLFDFAIKNKALRDNPTRFIVLKKDNLEHHHHHH
  protein production: failed

## MTRMKMFKLWMVVMLLGLLPIVSEAQEEINNAINVQLEYLKKYPKDKEALRKVSFLYLNKADYDQAIFYGRQLFELGYNERDYNGAVIYSHICLGQAHMMKGNVKEAYSHLGQARLIGESNKNDSALCSVYNGLGLYASNVQKDYYRSLTYFFKGVEAARRCHYDRLYSILLSNIAGIYYLKNDSTGLKYALECYELGHERKDPYLIYSGSTNTAYMYYLKSDYNTALKYIQEAEFTMVQNDFYDQSNVYNLYGYILHKLNKDDEALVFFRKALDLKEQGNISSVMNSYLGYAEILMEHHQYDRAVRMLKAGIELSYQQANAIYRSDLLKALSRCYEEDGMLVEALKYHKLYQLETDSLYNAEKERAVGEIRAKYDMERQENEIKQNRLELLEKENKMQLLIAGFICIFIAASLLYYLYYRKNKLYLTIVKQNQDAIRREQQLQNKIDEQFAEIGRQSALLQEYLTDSTKTSLPQPEKYASSSLTDEKKQDLFLRLETLLWEEKVFTDNLLTKEKVAEMLGTNRTYLSQIINEQTKQTFTQFVNGFRTKEAVRLLSDPDNQTPLKAISAELGFNSMTTFYSQFQAATGMTPAQYRNKVQELHKNR
  protein production: failed

## MTRPIGIYEKATPKHFNWLERLQFAKELGFDFVELSIDESDERLARLEWSKEERLELVKAIFETGVRVPTITFSGHRRFPMGSNNPEKEARAMDMMKKCIVFAQDIGIRNIQLAGYDVYYEEKSPETRARFIKNLRQACTWAEEAQVILSIEIMDDPFMNSIEKYLAVEKEIDSPYLFVYPDTGNVSAWHNDLWSEFYNGHRSIAALHIKDTYAVTETSKGQFRDVPFGQGCVDWEEMFAVIKKTNYNGPFLIEMWSENCETVEETRAAIKEAQDFLYPLMEKTGVK
  protein production: failed

## MTRSERKPLLMLMVNMFVVMMGIGLVIPILPYYIEAFGASSVELGLLIAIFSFMQFLLAPFWGRLSDKVGRKPLIAVGMFGFAVAEFIFAFATQFWMLFVSRILAGAFGSAVMPAAMAYVSDRTSEEKRGHGMGLLGASMALGIVVGPGIGGWLAEFSLATPFLFAGFAASFAAIFSLLWLPESLPLEKRKTEVEPVNQFVQMWQAVRSPIGFLLFLVFGLSFGLANFQTIFGIFALHRFHYNPSEVGFIMVLTGIVGAIAQGSLVGRLTERYGEEKVVLGSLSLSGIGFLIMMLAFNYWTVIATTCLFFLGNSILRPAVQSFLSKMAGDQQGMIMGLNNSILSLGNVVGALLAGLLFEWNMFLPYTVGAFVMFASLGATFRWLSKRASQGKHPEKSSP
  protein production: failed

## MTSAAEITAAVRQLYNTYPFPPEPLLDEPPPGYNWRWSWPAAYSFCTGRYPSQLDVAILDAGCGTGVGTEYLAHLNPQAKITALDLSEAALAIACERCRRSGATNVQFHHLSLEEVAQLGQTFQMINCVGVLHHLPEPQRGIQALADVLAPGGIVHIFVYGEYGRWEIKLMQQAIALLQGSDRHNYREGVAIGRQLFAALPENNRLKKREQERWSLENQRDECFADMYVHPQEIDYTIASLFELIRASGLEFIGFSNPQVWQLERLLGSQPELLQRAQQLDPIQQYQLIECLDPEAMTHFEFFLAKPPLPRHDWAADRELLAAIPWRHPCIDGWPGACVFNCHYEVIHLNQAEQEFLNAASGKATVAELLAQQPDFNLAEVRSLLARHLLLLGVKELEHHHHHH
  protein production: failed

## MTSCTIIDATDRSIRQTLGETSTLARLIWVDAGLASPPLCSGLARCGRCRVRITEAAPAPHEDDREFFSAEDISAGWRLACRHAPAHGMVVHVPLEHHHHHH
  protein production: not failed

## MTSDGATSTSAAAAAAAAAAARRKPSWRERENNRRRERRRRAVAAKIYTGLRAQGDYNLPKHCDNNEVLKALCVEAGWVVEEDGTTYRKPLPGEIAGTSSRVTPYSSQNQSPLSSAFQSPIPSYQVSPSSSSFPSPSRGEPNNNMSSTFFPFLRNGGIPSSLPSLRISNSCPVTPPVSSPTSKNPKPLPNWESIAKQSMAIAKQSMASFNYPFYAVSAPASPTHRHQFHTPATIPECDESDSSTVDSGHWISFQKFAQQQPFSASMVPTSPTFNLVKPAPQQMSPNTAAFQEIGQSSEFKFENSQVKPWEGERIHDVGMEDLELTLGNGKARG
  protein production: failed

## MTSKRKRWTAQAAKLPSPMGGLALAIASLGWTWESVMPSLNGWGQLTGAMIASALLLMLTGKFLLHPTVLKNELSHPVIGSVIPTFAMALMVVSNLLGHYFPHAGLALWLGAIAIHVVFLGAFIYYRAIDFKLEHMVPSWFVPPIGIIVAAVSFPSNGEPWLVNTILAFGMLAYLIMLPLMLYRLIFCQAIPDAAKPTIAILAAPASLSLAGYLTVCEQPSIAVVAILVSIAILMTSVIYLAFFHLLKLPFSPGYAAFTFPMVIGATALFKTAHWLEQFSQMAELTEWVRLLADFELGVATIVVAYVALRYLTHYVPNPVENIGSTTSVQLK
  protein production: failed

## MTSLPQISTLMREKSVENKLKVKAKDDHMVPSGLYEVRAIQLPGGSWRHYYVDHSSKETYWILPYSHPDGASSHPLEKLPVYLPSYEECVDETNPLAVPEVCSPARD
  protein production: not failed

## MTSPSHASDRGGGDGDSVENQSPELRKDPVTNRWVIFSPARAKRPTDFKSKSPQNPNPKPSSCPFCIGREQECAPELFRVPDHDPNWKLRVIENLYPALSRNLETQSTQPETGTSRTIVGFGFHDVVIESPVHSIQLSDIDPVGIGDILIAYKKRINQIAQHDSINYIQVFKNQGASAGASMSHSHSQMMALPVVPPTVSSRLDGTKDYFEETGKCCLCEAKSKHFVIDESSHFVSVAPFAATYPFEIWIIPKDHSSHFHHLDDVKAVDLGGLLKLMLQKIAKQLNDPPYNYMIHTSPLKVTESQLPYTHWFLQIVPQLSGVGGFEIGTGCYINPVFPEDVAKVMREVSLT
  protein production: not failed

## MTSRIQMHRTSPPPAYGTSAPPSGFTLGASTTSTLQRWALPLLLVAFGLFYLLPLTSHGLWIPDETRYAQISQEMLLSGDWVAPHFMGIRYFEKPIAGYWLIAIGQAVFGDNLFGVRIASALSTGLSVLLAYLITRRMWNDPRKSFAAALLYMSFGLIAGQAGYSNLDPQFTLWVNLSLVALWFALDGRSTRERLLAWAGLGVACGMGFMTKGFLAWLLPVLIALPYMIWQRRLGELVRYGLVAVLVAIGISLPWVLSIHAHEPDFWRFFFWHEHIRRFAADNAQHTRPWWFYLPLLVASSLPWAALLPGTFMQAWKDKRQAPTGFLLLWFLLPLAFFSLSRGKLPTYIMPCLLPLAVLMGSALIDRINAIQGRSIRINSLLNLLIGVAAMVALLYIQLTRPVYGHNEMLGLSLVFIMLMGWIIANLLPAARPLQYWPAPALGIWLLVALLPAGMPGFIVHNQMPDQFIKEHIEELRQTKTLLSNDLGAASALAWRLQRPEVTLYNTEGELKYGLAYADSAQRKVSMAEVGQWVSEARKQGSVGVVMRVKDVVESEEVALLPPGGKRYEEGNMLVLILPQSQP
  protein production: failed

## MTSRLRALGGRINNIRTSELPKEKTRSEVTCSIRFLDGLVQTFKVNKQDLGQSLLDMAYGHLGVTEKEYFGLQHGDDPVDSPRWLEASKPLRKQLKGGLPCILHFRVRYFIPDPNTLQQEQTRHLYFLQLKMDVCEGRLTCPLNSAVVLASYAVQSHIGDFNSSIHHPGYLADSQFIPDQNDDFLSKVESLHEQHSGLKQSEAESCYINIARTLDFYGVELHGGRDLHNLDLMIGIASAGIAVYRKYICTSFYPWVNILKISFKRKKFFIHQRQKQAESREHIVAFNMLNYRSCKNLWKSCVEHHSFFQAKKLLPQEKNVLSQYWTLGSRNPKKSVNNQYCKKVIGGMVWNPVMRRSLSVERLETKSLPSRSPPITPNWRSPRLRHEIRKPRHSSADNLANEMTYITETEDVFYTYKGSLSPKDSDSEVSQNHSPHRGSLSENNPAQSCLTQKSSSSVSPCSNAPGSFSPDGVDQQFLEDYHKVTKGGSIEEASQYYCDKNDDGDGYLVLIRITPDKEGRFGFNLKGGVDQKMPLVVSRINPESPADTCMPKLNEGDQIVLINGRDISEHTHDQVVMFIKASRESHSRELALVIRRKAVRSLAEIRSEDELSQLFPEAMFPACPEGGDSLEGSMELLKKGLESGTVLIQFEQLYRKKPGLAVTFAKLPQNLDKNRYKDVLPYDTTRVLLQGNEDYINASYVNMEIPAANLVNKYIATQGPLPHTCAQFWQVVWDQKLSLVVMLTTLTERGRTKCHQYWPDPPDIMDHGIFHIQCQAEDCTIAYVSREMLVTNTETGEEHTVTHLQYVAWPDHGVPDDSSDFLEFVKYVRSLRVGGEPALVHCSAGIGRTGVLVTMETAMCLIERNLPVYPLDIVRKMRDQRAMMVQTSSQYKFVCEAILRVYEEGLVQTLDPS
  protein production: failed

## MTSRRLEESMGAVQMGLVNMFKGFQSKVLPPLSPKVVTEEEVNRMLTPSEFLKEMSLTTEQRLAKTRLMCRPQIIELLDMGETTHQKFSGIDLDQALFQPFPSEIIFQNYTPCEVYEVPLILRNNDKIPRLVKVVEESSPYFKVISPKDIGHKVAPGVPSIFRILFTPEENKDYAHTLTCVTEREKFIVPIKARGARAILDFPDKLNFSTCPVKYSTQKILLVRNIGNKNAVFHIKTCRPFSIEPAIGTLNVGESMQLEVEFEPQSVGDHSGRLIVCYDTGEKVFVSLYGAAIDMNIRLDKNSLTIEKTYISMANQRTITIHNRSNIIAHFLWKVFATQQEEDREKYRACDDLIKEEKDETDEFFEECITDPLLREHLSVLSRTFANQRRLVQGDSKLFFNNVFTVEPLEGDVWPNSSAEITVYFNPLEAKLYQQTIYCDILGREIRLPLRIKGEGMGPKIHFNFELLDIGKVFTGSAHCYEAILYNKGSIDALFNMTPPTSALGACFVFSPKEGIIEPSGVQAIQISFSSIILGNFEEEFLVNVNGSPEPVKLTIRGCVIGPTFHFNVPALHFGDVSFGFPHTLICSLNNTSLIPMTYKLRIPGDGLGHKSISYCEQHVDYKRPSWTKEEISSMKPKEFTISPDCGTIRPQGFAAIRVTLCSNTVQKYELALVVDVEGIGEEVLALLITARYCSPACSSPESPPSLQ
  protein production: not failed

## MTSSDLPVMLFAAGFGTRMGDLTRTRPKPLIEVAGRPLVDHTLDLARAVSPPRIVANLHYLAPLLAAHLAPQGVLLSHEQPDILDTGGGLRQALPLLAAETVFTANSDAIWSGPNPFALLAEAWEPARMDALLMCVPVGQAIGHAGHGDFSRDAQGRIERGPGLIYGGVQIVKTGGLGDFDMPAFSLNLLWNRIGAAGRLFALEYPGRWCDVGHPGGIALAEEMLRDVLEHHHHHH
  protein production: not failed

## MTSTTTAPLVGLVMGSDSDWPVMEAAADALAEFGIPFEADVVSAHRMPTEMIRYGQTAHERGLRVIIAGAGGAAHLPGMLASVTPLPVIGVPVPLKTLDGMDSLLSIVQMPAGVPVATVSIAGARNAGLLAVRILASGTDDLASKLRADLLTFAQELNDVATKKGENLRHKVEEVFSPANASARSSR
  protein production: failed

## MTSTTTSQQELFRFLEDRFACAQACTECARACALRASLVDPDGTENQELVRRRGIMCAEVCDATCRVLSEQNQVDEAAIRAQLEWCRQVCLESAHVFDDHPGAEESAQACRDCARACGEFLATLR
  protein production: failed

## MTSVESTAHIEKRFIELKNIWFIIASLCYVAAIGFIIAYFVGGYSPYISIAVMWGCIGSLDMILGILRRKKEK
  protein production: failed
